Test results as given in publication PMC11909244, “Rice transcription factor bHLH25 confers resistance to multiple diseases by sensing H2O2”.

Experiments:
bHLH25 [1] = molecular target: T1, bHLH25 (Oryza sativa (Nipponbare), UniProt Q5SMX4 1-439); assay: competition; unlabeled competitor of N1; 10 mM Tris-HCl pH 7.5, 50 mM KCl, 50 ng/mL poly(dI-dC), 1 mM DTT, ~0.5 ug GST protein in 10 uL, 0.5 uM pmiR397b-G-box or 0.1 uM pCPS2-N-box biotin probe; temperature not stated; conditions: protein: recombinant; tags: GST-SUMO (pGEX-6p-1-SUMO); chain copies: 2
T1 sequence (Q5SMX4 entry or part of it): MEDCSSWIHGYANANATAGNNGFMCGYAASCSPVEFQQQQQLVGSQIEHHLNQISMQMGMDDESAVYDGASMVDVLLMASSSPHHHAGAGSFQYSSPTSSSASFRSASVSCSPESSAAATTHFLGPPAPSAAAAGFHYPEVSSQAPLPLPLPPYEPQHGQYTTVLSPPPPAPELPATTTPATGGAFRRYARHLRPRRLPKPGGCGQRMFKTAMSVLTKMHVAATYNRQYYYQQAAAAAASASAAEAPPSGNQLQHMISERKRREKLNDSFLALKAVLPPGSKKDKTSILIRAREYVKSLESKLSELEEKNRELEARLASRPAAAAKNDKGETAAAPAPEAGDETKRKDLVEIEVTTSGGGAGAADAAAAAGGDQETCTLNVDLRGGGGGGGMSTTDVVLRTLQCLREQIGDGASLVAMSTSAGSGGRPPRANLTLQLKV

bHLH25 M256V = bHLH25 M256V (Oryza sativa (Nipponbare), UniProt Q5SMX4 1-439, M256V); assay: EMSA; 10 mM Tris-HCl pH 7.5, 50 mM KCl, 50 ng/mL poly(dI-dC), 1 mM DTT, ~0.5 ug GST protein in 10 uL, 0.5 uM pmiR397b-G-box or 0.1 uM pCPS2-N-box biotin probe; temperature not stated; conditions: protein: recombinant; tags: GST-SUMO; chain copies: 2; label: 5' biotin
Chain of bHLH25 M256V (Q5SMX4 entry or part of it M256V | M256V M256V): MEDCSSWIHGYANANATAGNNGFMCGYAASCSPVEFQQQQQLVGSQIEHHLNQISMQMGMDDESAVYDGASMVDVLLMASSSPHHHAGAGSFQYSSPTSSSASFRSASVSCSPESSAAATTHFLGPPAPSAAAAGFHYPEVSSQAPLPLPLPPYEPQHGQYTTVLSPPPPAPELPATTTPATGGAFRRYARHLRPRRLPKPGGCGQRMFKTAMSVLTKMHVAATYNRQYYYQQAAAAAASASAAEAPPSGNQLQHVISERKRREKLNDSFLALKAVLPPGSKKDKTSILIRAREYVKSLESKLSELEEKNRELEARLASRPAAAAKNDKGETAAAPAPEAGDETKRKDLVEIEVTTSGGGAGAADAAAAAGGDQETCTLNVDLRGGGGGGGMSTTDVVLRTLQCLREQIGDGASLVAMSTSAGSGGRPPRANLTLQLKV

bHLH25 [2] = molecular target: T1, bHLH25; assay: as above; conditions: protein: recombinant; tags: GST-SUMO (pGEX-6p-1-SUMO); chain copies: 2; label: 5' biotin

B1: com-pmiR397b-G-box (dsDNA)
DNA 1: GTACTTTGTCACGTCCTGATCGAT
DNA 2: ATCGATCAGGACGTGACAAAGTAC
B1: binds (bHLH25 [1]).

B2: bio-pCPS2-N-box (dsDNA)
DNA 1: TTTCACAATCACGAGCTAGACTAA
DNA 2: TTAGTCTAGCTCGTGATTGTGAAA
B2: no binding (bHLH25 M256V); binds (bHLH25 [2]).

B3: bio-pmiR397b-G-box (dsDNA)
DNA 1: GTACTTTGTCACGTCCTGATCGAT
DNA 2: ATCGATCAGGACGTGACAAAGTAC
B3: no binding (bHLH25 M256V); binds (bHLH25 [2]).
